This passage reports EC50 results from patent publication US20060058231A1.

The target in the experiment is anti-BMP-7 antibodies of the commercial ELISA (R&D Systems ELISA Duoset Cat#DY354). In words: sandwich ELISA (R&D Systems BMP7 ELISA Cat#DY354), BMP-7 protein titrated, % ELISA signal; the EC50 column carries no unit, the concentration axis is in ug/mL.

B1: 492 (ligand)
BMP-7 mature domain: STGGKQRSQNRSKTPKNQEALRMASVAENSSSDQRQACKKHELYVSFRDLGWQDWIIAPEGYAANYCEGECAFPLNSHMNATNHAIVQTLVHFINPETVPKPCCAPTQLNAISVLYFDDSSNVILKKYRNMVVRACGCH
By EC50 is commonly meant the concentration giving half of the maximal effect. A high value points to a less potent agent. As for B1, the EC50 was 1.74 ng/mL.

B2: 471 (ligand)
BMP-7 mature domain: STGGKQRSQNRSKTPKNQEALRMASVAENSSSDQRQACSKHELYVSFRDLGWQDWIIAPEGYAAYYCEGECAFPLNSYMNATNHAIVQTLVHFINPETVPKPCCAPTQLNAISVLYFDDSSNVILKKYRDMVVRACGCH
The molecule B2 displayed an EC50 of 0.755 ng/mL.
